From paper PMC6346101 (2019)

Molecular target: Biotinylated D/NP_(TAIL) fused to a biotinylation motif (Influenza D virus, strain …, UniProt A0A0E3VZU8 505-552)
Assay: SPR

B1: human importin-α7 without its IBB domain (amino-acids 58 to 536) (domain or fragment)
chain: not shown
- koff: 0.09 s⁻¹
